Experiments:
[1] = target: T1, human CD3ε/δ (ACRO systems, CDD-H52W1) (human, UniProt P07766 23-126; P04234 22-105); assay: serum-stability ELISA, Day 2 vs Day 0
T1 construct: bought recombinant heterodimer; also called human CD3 epsilon/delta; Human CD3ε/CD3δ
Experimental: (§1) The samples to be tested were centrifuged at 4° C. at 12000 rpm for 30 minutes to remove the precipitate. 200 μl of each sample to be tested (0.5 mg/ml) was collected in a 1.5 ml Eppendorf tube. An equal volume of human serum (GEMINI, H2OYOOK) was added, mixed thoroughly, and the mixture was incubated in a 37° C. constant temperature CO₂ incubator. For a total of 10 days, 40 μl samples was aspirated every day and stored at −20° C.
(§2) Enzyme-linked immunosorbent assay (ELISA) was used to test the bispecific antibodies' binding to human CEA and human CD3 epsilon/delta antigen. The steps are as follows: the antigen human CD3ε/δ (ACRO systems, CDD-H52W1) and the recombinant tumor antigen human CEA (CEACAM-5/CD66e, ACRO systems, CE5-H5226) were diluted to 1 μg/ml with PBS, and then added to the 96-well plate at 100 μl per well. The wells were coated overnight at 4° C. After washing 3 times with 0.05% PBST, 200 μl 5% skimmed milk powder was added to each well and incubated at 37° C. for 2 h. After washing 3 times with 0.05% PBST, 100 μl primary antibody sample (10 μg/ml) was added to each well, and incubated at 37° C. for 2 h. After washing 3 times with 0.05% PBST, 100 μl (1:6000) diluted secondary antibody goat anti-human Fc-HRP (sigma, A2170) was added to each well, incubated at room temperature for 1 h. After washing 8 times with 0.05% PBST, 50 μl TMB color developing solution was added to each well, and incubated at room temperature for 10-15 min. 50 μl 1 mM HCl was added to each well to stop the color development. 450 nm Absorbance (OD) was read.
(§3) The binding of antibodies to antigen was calculated according to the following formula: Binding (%)=[(ODdayn−ODb)/(ODday0−ODb)]×100%. ODdayn: experimental well (the protein was stored in the serum for n days); ODday0: control well (the protein was not stored in the serum); ODb: blank well (no primary antibody added).

[2] = target: T1, human CD3ε/δ (ACRO systems, CDD-H52W1); assay: serum-stability ELISA, Day 9 vs Day 0
Experimental: as §1, §2, §3

[3] = target: T1, human CD3ε/δ (ACRO systems, CDD-H52W1); assay: serum-stability ELISA, Day 5 vs Day 0
Experimental: as §1, §2, §3

[4] = target: T1, human CD3ε/δ (ACRO systems, CDD-H52W1); assay: serum-stability ELISA, Day 7 vs Day 0
Experimental: as §1, §2, §3

[5] = target: T1, human CD3ε/δ (ACRO systems, CDD-H52W1); assay: serum-stability ELISA, Day 1 vs Day 0
Experimental: as §1, §2, §3

[6] = target: T1, human CD3ε/δ (ACRO systems, CDD-H52W1); assay: serum-stability ELISA, Day 10 vs Day 0
Experimental: as §1, §2, §3

[7] = target: T1, human CD3ε/δ (ACRO systems, CDD-H52W1); assay: serum-stability ELISA, Day 0 (reference)
[8] = target: T1, human CD3ε/δ (ACRO systems, CDD-H52W1); assay: serum-stability ELISA, Day 6 vs Day 0
Experimental: as §1, §2, §3

[9] = target: T2, keyhole limpet haemocyanin (KLH, Sigma, H8283) (keyhole limpet, UniProt Q10583 17-3414; Q10584 20-3421, limits assumed); assay: ELISA, KLH coated at 5 ug/mL, 100 nM antibody, anti-human IgG-HRP
T2 construct: Bought preparation coated on the plate in the polyspecificity ELISA
Experimental: (§4) (1) Antigen coating: cardiolipin (Sigma, cat. C0563), keyhole limpet haemocyanin (KLH, Sigma, H8283), LPS (Sigma, L6529), ssDNA (Sigma, D8899), dsDNA (Sigma, D4522) and Insulin (abs42019847) were plated at 50 μg/mL, 5 μg/mL, 10 μg/mL, 1 μg/mL, 1 μg/mL, g/mL, and 50 μL per well, and incubated at 4° C. overnight;
(§5) (4) 50 μl anti-human IgG-HRP conjugate (Sigma, AP113P, 1:8000 dilution) was added to each well; the plate was incubated for 1 h at room temperature and washed 6 times with 0.05% PBST;

[10] = target: T3, human EGFR on tumor cells (human, UniProt P00533 25-1210); assay: cell-based or functional assay
Insulin (abs42019847) = target: T4, Insulin (abs42019847); assay: ELISA, insulin coated on the plate, 100 nM antibody, anti-human IgG-HRP
T4 construct: Coated on the plate in the polyspecificity ELISA
Experimental: as §4, §5

[11] = target: T3, human EGFR on tumor cells; assay: cell-based or functional assay; remark: listed apart in the source
[12] = target: T1, human CD3ε/δ (ACRO systems, CDD-H52W1); assay: BLI, antibody captured on AHC sensor, 30 C
[13] = target: T5, recombinant tumor antigen human EGFR (ACRO systems, EGR-H5222) (human, UniProt P00533 25-645); assay: BLI, antibody captured on AHC sensor, 30 C
T5 construct: bought recombinant protein
Text: After the chip captures the bispecific antibodies, it was allowed to bind and dissociate with different concentrations of analytes to obtain the KD value of the interaction. The experimental parameters are as follows: Baseline1: 60s, Loading: 240s, Baseline2: 180s, Association: 240s, Dissociation: 600s, Loading Response: 1.9-2.1 (nm), High sensitivity kinetics: 2 Hz. Kinetic constants were derived based on 1:1 Langmuir binding to obtain equilibrium dissociation constants (KD).

B1: 312 (TA7), configuration of FIG. 1X (bispecific antibody)
heavy: EVQLVQSGAEVKKPGASVKVSCKASGFTFTSYYIHWVRQAPGQGLEWIGWIYPENDNTKYNEKFKDRVTITADTSTSTAYLELSSLRSEDTAVYYCARDGYSRYYFDYWGQGTLVTVSSASTKGPSVFPLAPCSRSTSESTAALGCLVKDYFPEPVTVSWNSGALTSGVHTFPAVLQSSGLYSLSSVVTVPSSSLGTKTYTCNVDHKPSNTKVDKRVESKYGPPCPPCPAPEAAGGPSVFLFPPKPKDTLMISRTPEVTCVVVDVSQEDPEVQFNWYVDGVEVHNAKTKPREEQFNSTYRVVSVLTVLHQDWLNGKEYKCKVSNKGLPSSIEKTISKAKGQPREPQVYTLPPCQEEMTKNQVSLWCLVKGFYPSDIAVEWESNGQPENNYKTTPPVLDSDGSFFLYSRLTVDKSRWQEGNVFSCSVMHEALHNHYTQKSLSLSLGGGGSGGGGSEVQLVESGGGFVQAGESLTLSCTSSTLTFTPYRMAWYRQAPGKQRDLVADISSGDGRTTNYADFAKGRFTISRDNIKNTVFLRMTNLKPEDTAVYYCNTFVSFVGIARSWGQGTQVTVSS
chain: ESKYGPPCPPCPAPEAAGGPSVFLFPPKPKDTLMISRTPEVTCVVVDVSQEDPEVQFNWYVDGVEVHNAKTKPREEQFNSTYRVVSVLTVLHQDWLNGKEYKCKVSNKGLPSSIEKTISKAKGQPREPQVCTLPPSQEEMTKNQVSLSCAVKGFYPSDIAVEWESNGQPENNYKTTPPVLDSDGSFFLVSRLTVDKSRWQEGNVFSCSVMHEALHNRFTQKSLSLSL
light: DIVMTQSPDSLAVSLGERATINCKSSQSLLNSRTRKNYLAWYQQKPGQSPKLLIYWTSTRKSGVPDRFSGSGSGTDFTLTISSLQAEDVAVYYCKQSFILRTFGQGTKVEIK
notes: not shown: kappa light chain constant domain (CL)
Binding % [1]: 106% | Binding % [2]: 101% | Binding % [3]: 104% | Binding % [4]: 98.2% | Binding % [5]: 103% | Binding % [6]: 104% | Binding % [7]: 100% | Binding % [8]: 102%

B2: EGFR-CD3 bispecific antibody 401 (bispecific antibody, human IgG4 S228P, kappa, F234A L235A)
heavy: EVKLLESGGGLVQPKGSLKLSCAASGFTFNTYAMNWVRQAPGKGLEWVARIRSKYNNYATYYADSVKDRFTISRDDSQSILYLQMNNLKTEDTAMYYCVRHGNFGNSYVSWFAYWGQGTLVTVSSASTKGPSVFPLAPCSRSTSESTAALGCLVKDYFPEPVTVSWNSGALTSGVHTFPAVLQSSGLYSLSSVVTVPSSSLGTKTYTCNVDHKPSNTKVDKRVESKYGPPCPPCPAPEAAGGPSVFLFPPKPKDTLMISRTPEVTCVVVDVSQEDPEVQFNWYVDGVEVHNAKTKPREEQFNSTYRVVSVLTVLHQDWLNGKEYKCKVSNKGLPSSIEKTISKAKGQPREPQVYTLPPCQEEMTKNQVSLWCLVKGFYPSDIAVEWESNGQPENNYKTTPPVLDSDGSFFLYSRLTVDKSRWQEGNVFSCSVMHEALHNHYTQKSLSLSL
chain: QVQLQESGGGSVQAGGSLKLSCAASGRGFSRYAMGWFRQAPGQDREFVATISWTNSTDYADSVKGRFAISRDNAKNTAYLQMNSLKPEDTAVYYCAADKWASSTRSIDYDYWGQGIQVTVSSESKYGPPCPPCPAPEAAGGPSVFLFPPKPKDTLMISRTPEVTCVVVDVSQEDPEVQFNWYVDGVEVHNAKTKPREEQFNSTYRVVSVLTVLHQDWLNGKEYKCKVSNKGLPSSIEKTISKAKGQPREPQVCTLPPSQEEMTKNQVSLSCAVKGFYPSDIAVEWESNGQPENNYKTTPPVLDSDGSFFLVSRLTVDKSRWQEGNVFSCSVMHEALHNRFTQKSLSLSL
light: QAVVTQESALTTSPGETVTLTCRSSTGAVTTSNYANWVQEKPDHLFTGLIGGTNKRAPGVPARFSGSLIGDKAALTITGAQTEDEAIYFCALWYSNLWVFGGGTKVEIKRTVAAPSVFIFPPSDEQLKSGTASVVCLLNNFYPREAKVQWKVDNALQSGNSQESVTEQDSKDSTYSLSSTLTLSKADYEKHKVYACEVTHQGLSSPVTKSFNRGEC
Absorbance value (450 nm, polyspecificity ELISA) [9]: 0.96 | EC50 of tumor cell killing, MDA-MB-468 cells with human PBMC (E:T 10:1, 3 days, CCK8) [10]: 0.0208 pM | EC50 of tumor cell killing, NCI-H1573 cells with human PBMC (E:T 10:1, 3 days, CCK8) [10]: 5.83 pM | EC50 of tumor cell killing, NCI-H1650 cells with human PBMC (E:T 10:1, 3 days, CCK8) [10]: 98.6 pM | EC50 of tumor cell killing, NCI-H2228 cells with human PBMC (E:T 10:1, 3 days, CCK8) [10]: 114 pM | EC50 of tumor cell killing, SK-OV-3 cells with human PBMC (E:T 10:1, 3 days, CCK8) [10]: 11.3 pM | Absorbance value (450 nm, polyspecificity ELISA) (Insulin (abs42019847)): 1.01 | EC50 of tumor cell killing, MCF-7 cells with human PBMC (E:T 10:1, 3 days, CCK8) [11]: 206 pM | EC50 of tumor cell killing, N87 cells with human PBMC (E:T 10:1, 3 days, CCK8) [11]: 1310 pM | EC50 of tumor cell killing, NCI-H157 cells with human PBMC (E:T 10:1, 3 days, CCK8) [11]: 10000 pM | EC50 of tumor cell killing, NCI-H441 cells with human PBMC (E:T 10:1, 3 days, CCK8) [11]: 5.38 pM

B3: EGFR-CD3 bispecific antibody 401 (bispecific antibody, human IgG4 S228P, kappa, F234A L235A)
heavy: EVKLLESGGGLVQPKGSLKLSCAASGFTFNTYAMNWVRQAPGKGLEWVARIRSKYNNYATYYADSVKDRFTISRDDSQSILYLQMNNLKTEDTAMYYCVRHGNFGNSYVSWFAYWGQGTLVTVSSASTKGPSVFPLAPCSRSTSESTAALGCLVKDYFPEPVTVSWNSGALTSGVHTFPAVLQSSGLYSLSSVVTVPSSSLGTKTYTCNVDHKPSNTKVDKRVESKYGPPCPPCPAPEAAGGPSVFLFPPKPKDTLMISRTPEVTCVVVDVSQEDPEVQFNWYVDGVEVHNAKTKPREEQFNSTYRVVSVLTVLHQDWLNGKEYKCKVSNKGLPSSIEKTISKAKGQPREPQVYTLPPCQEEMTKNQVSLWCLVKGFYPSDIAVEWESNGQPENNYKTTPPVLDSDGSFFLYSRLTVDKSRWQEGNVFSCSVMHEALHNHYTQKSLSLSL
chain: QVQLQESGGGSVQAGGSLKLSCAASGRGFSRYAMGWFRQAPGQDREFVATISWTNSTDYADSVKGRFAISRDNAKNTAYLQMNSLKPEDTAVYYCAADKWASSTRSIDYDYWGQGIQVTVSSESKYGPPCPPCPAPEAAGGPSVFLFPPKPKDTLMISRTPEVTCVVVDVSQEDPEVQFNWYVDGVEVHNAKTKPREEQFNSTYRVVSVLTVLHQDWLNGKEYKCKVSNKGLPSSIEKTISKAKGQPREPQVCTLPPSQEEMTKNQVSLSCAVKGFYPSDIAVEWESNGQPENNYKTTPPVLDSDGSFFLVSRLTVDKSRWQEGNVFSCSVMHEALHNRFTQKSLSLSL
light: QAVVTQESALTTSPGETVTLTCRSSTGAVTTSNYANWVQEKPDHLFTGLIGGTNKRAPGVPARFSGSLIGDKAALTITGAQTEDEAIYFCALWYSNLWVFGGGTKVEIKRTVAAPSVFIFPPSDEQLKSGTASVVCLLNNFYPREAKVQWKVDNALQSGNSQESVTEQDSKDSTYSLSSTLTLSKADYEKHKVYACEVTHQGLSSPVTKSFNRGEC
notes: VHH-hole chain assembled from VHH and hole-Fc with hinge
Kd [12]: 2710 pM | koff [12]: 0.000491 s⁻¹ | kon [12]: 181000 M⁻¹ s⁻¹ | Kd [13]: 2070 pM | koff [13]: 0.00201 s⁻¹ | kon [13]: 969000 M⁻¹ s⁻¹

B4: EGFR-CD3 bispecific antibody 404 (bispecific antibody, human IgG4 S228P, kappa, F234A L235A)
chain: QVQLQESGGGSVQAGGSLKLSCAASGRGFSRYAMGWFRQAPGQDREFVATISWTNSTDYADSVKGRFAISRDNAKNTAYLQMNSLKPEDTAVYYCAADKWASSTRSIDYDYWGQGIQVTVSSESKYGPPCPPCPAPEAAGGPSVFLFPPKPKDTLMISRTPEVTCVVVDVSQEDPEVQFNWYVDGVEVHNAKTKPREEQFNSTYRVVSVLTVLHQDWLNGKEYKCKVSNKGLPSSIEKTISKAKGQPREPQVYTLPPCQEEMTKNQVSLWCLVKGFYPSDIAVEWESNGQPENNYKTTPPVLDSDGSFFLYSRLTVDKSRWQEGNVFSCSVMHEALHNHYTQKSLSLSL
heavy: EVKLLESGGGLVQPKGSLKLSCAASGFTFNTYAMNWVRQAPGKGLEWVARIRSKYNNYATYYADSVKDRFTISRDDSQSILYLQMNNLKTEDTAMYYCVRHGNFGNSYVSWFAYWGQGTLVTVSSASTKGPSVFPLAPCSRSTSESTAALGCLVKDYFPEPVTVSWNSGALTSGVHTFPAVLQSSGLYSLSSVVTVPSSSLGTKTYTCNVDHKPSNTKVDKRVESKYGPPCPPCPAPEAAGGPSVFLFPPKPKDTLMISRTPEVTCVVVDVSQEDPEVQFNWYVDGVEVHNAKTKPREEQFNSTYRVVSVLTVLHQDWLNGKEYKCKVSNKGLPSSIEKTISKAKGQPREPQVCTLPPSQEEMTKNQVSLSCAVKGFYPSDIAVEWESNGQPENNYKTTPPVLDSDGSFFLVSRLTVDKSRWQEGNVFSCSVMHEALHNRFTQKSLSLSL
light: QAVVTQESALTTSPGETVTLTCRSSTGAVTTSNYANWVQEKPDHLFTGLIGGTNKRAPGVPARFSGSLIGDKAALTITGAQTEDEAIYFCALWYSNLWVFGGGTKVEIKRTVAAPSVFIFPPSDEQLKSGTASVVCLLNNFYPREAKVQWKVDNALQSGNSQESVTEQDSKDSTYSLSSTLTLSKADYEKHKVYACEVTHQGLSSPVTKSFNRGEC
notes: VHH-knob chain assembled from VHH and knob-Fc with hinge
Kd [12]: 2650 pM | koff [12]: 0.000469 s⁻¹ | kon [12]: 177000 M⁻¹ s⁻¹ | Kd [13]: 2200 pM | koff [13]: 0.00238 s⁻¹ | kon [13]: 1.08e+06 M⁻¹ s⁻¹

From patent publication US20240400715A1 (VIBRANT PHARMA, published 2024)
